Source: article PMC9705548, “Altered tRNA processing is linked to a distinct and unusual La protein in Tetrahymena thermophila”

Columns and labels:
Mlp1 [1] = molecular target: T1, Mlp1 (Tetrahymena thermophila, UniProt Q23RK6 1-340); test: EMSA; 20 mM Tris-HCl pH 7.4, 100 mM KCl, 1 mM EDTA, 5 mM beta-mercaptoethanol, 10% glycerol; ~0.1 nM RNA; 30 min at 30 C; 8% native PAGE at 4 C; details: protein: recombinant, tags: N-terminal 6xHis (pET28a)
T1 sequence: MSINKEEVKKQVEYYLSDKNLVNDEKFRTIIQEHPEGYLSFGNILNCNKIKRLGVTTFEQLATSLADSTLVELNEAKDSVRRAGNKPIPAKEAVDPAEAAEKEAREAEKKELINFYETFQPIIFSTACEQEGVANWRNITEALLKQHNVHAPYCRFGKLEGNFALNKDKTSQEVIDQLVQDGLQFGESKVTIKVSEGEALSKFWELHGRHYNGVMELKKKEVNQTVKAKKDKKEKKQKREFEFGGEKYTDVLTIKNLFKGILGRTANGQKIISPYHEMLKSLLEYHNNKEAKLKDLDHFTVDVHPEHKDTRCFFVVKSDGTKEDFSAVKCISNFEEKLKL

Mlp1 95-250 = molecular target: T2, Mlp1 95-250 (Tetrahymena thermophila, UniProt Q23RK6 95-250); test: EMSA; EMSA: 20 mM Tris-HCl pH 7.4, 100 mM KCl, 1 mM EDTA, 5 mM beta-mercaptoethanol, 10% glycerol; ~0.1 nM RNA refolded from 95 C; 30 min at 30 C; 8% native PAGE at 4 C; details: protein: recombinant; tags: N-terminal 6xHis (pET28a); label: 32P
T2 sequence: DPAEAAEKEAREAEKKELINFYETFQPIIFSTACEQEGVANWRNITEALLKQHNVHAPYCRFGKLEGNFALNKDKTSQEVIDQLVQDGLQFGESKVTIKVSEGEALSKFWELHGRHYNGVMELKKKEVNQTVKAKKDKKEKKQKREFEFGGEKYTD

Mlp1 1-95 = molecular target: T3, Mlp1 1-95 (Tetrahymena thermophila, UniProt Q23RK6 1-95); test: as above; details: protein: recombinant; tags: N-terminal 6xHis (pET28a); label: 32P
T3 sequence: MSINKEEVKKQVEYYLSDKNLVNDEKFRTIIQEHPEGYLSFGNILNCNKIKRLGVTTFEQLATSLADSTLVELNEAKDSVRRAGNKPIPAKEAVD

Mlp1 [2] = molecular target: T1, Mlp1; test: competition; EMSA: 20 mM Tris-HCl pH 7.4, 100 mM KCl, 1 mM EDTA, 5 mM beta-mercaptoethanol, 10% glycerol; ~0.1 nM RNA refolded from 95 C; 30 min at 30 C; 8% native PAGE at 4 C; details: protein: recombinant; tags: N-terminal 6xHis (pET28a); label: none
hLa = molecular target: T4, hLa (Homo sapiens, UniProt P05455 1-408); test: as above; details: protein: recombinant; tags: 6xHis (encoded in reverse primer, pET28a); label: none
T4 sequence: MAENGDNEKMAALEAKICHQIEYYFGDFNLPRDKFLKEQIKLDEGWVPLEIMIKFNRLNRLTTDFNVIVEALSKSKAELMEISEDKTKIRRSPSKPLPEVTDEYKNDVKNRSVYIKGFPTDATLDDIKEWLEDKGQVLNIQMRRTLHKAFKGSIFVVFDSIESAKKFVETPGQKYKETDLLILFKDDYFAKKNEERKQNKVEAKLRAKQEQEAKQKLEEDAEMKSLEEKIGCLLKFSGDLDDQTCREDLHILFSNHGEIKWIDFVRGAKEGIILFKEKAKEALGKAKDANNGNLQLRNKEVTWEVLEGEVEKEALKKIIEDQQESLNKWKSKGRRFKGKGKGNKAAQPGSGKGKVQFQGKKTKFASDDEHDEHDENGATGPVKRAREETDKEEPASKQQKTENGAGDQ

Mlp1 [3] = molecular target: T1, Mlp1; test: EMSA; EMSA: 20 mM Tris-HCl pH 7.4, 100 mM KCl, 1 mM EDTA, 5 mM beta-mercaptoethanol, 10% glycerol; ~0.1 nM RNA refolded from 95 C; 30 min at 30 C; 8% native PAGE at 4 C; details: protein: recombinant, tags: N-terminal 6xHis (pET28a)
Mlp1 Q11A/Y14A = molecular target: T5, Mlp1 Q11A/Y14A (Tetrahymena thermophila, UniProt Q23RK6 1-340, Q11A;Y14A); test: as above; details: protein: recombinant; tags: N-terminal 6xHis (pET28a)
T5 sequence: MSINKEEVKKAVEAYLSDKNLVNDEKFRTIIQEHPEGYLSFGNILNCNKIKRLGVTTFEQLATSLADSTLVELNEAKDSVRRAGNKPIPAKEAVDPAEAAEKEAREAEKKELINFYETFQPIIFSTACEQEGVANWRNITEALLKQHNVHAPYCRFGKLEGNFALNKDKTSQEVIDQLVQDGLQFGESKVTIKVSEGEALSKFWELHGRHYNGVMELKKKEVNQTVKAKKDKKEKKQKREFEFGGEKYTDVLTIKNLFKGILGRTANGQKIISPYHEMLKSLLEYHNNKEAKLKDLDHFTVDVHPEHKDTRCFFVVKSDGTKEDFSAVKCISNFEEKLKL

Mlp1 1-250 = molecular target: T6, Mlp1 1-250 (Tetrahymena thermophila, UniProt Q23RK6 1-250); test: as above; details: protein: recombinant; tags: N-terminal 6xHis (pET28a)
T6 sequence: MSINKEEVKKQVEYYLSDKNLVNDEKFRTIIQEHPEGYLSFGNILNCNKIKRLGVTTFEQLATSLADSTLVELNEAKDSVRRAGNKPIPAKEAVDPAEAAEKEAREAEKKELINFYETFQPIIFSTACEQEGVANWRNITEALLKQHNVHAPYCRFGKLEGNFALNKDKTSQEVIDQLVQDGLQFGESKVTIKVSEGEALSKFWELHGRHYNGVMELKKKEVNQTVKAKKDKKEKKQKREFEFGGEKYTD

[4] = label: 32P-UTP body label, tRNA fold

B1: pre-tRNA GlnUUA 3'-trailer only (structured_RNA)
RNA: GGUUCCAUAGUAUAGUGGUUAGUACUGGGGACUUUAAAUCCCUUGACCUGGGUUCGAAUCCCAGUGGGACCUGCUUUUU
Kd (Mlp1 [1]; label: 32P-UTP body label): 740 ± 40 nM

B2: uridylate RNA of Supplementary Fig. S4b (ssRNA)
RNA: CUGCUGUUUU
binding result (Mlp1 95-250): no binding | binding result (Mlp1 1-95): no binding

B3: U-1C (ssRNA)
RNA: CUGCUGUUUC
binding result (Mlp1 [2]): binds

B4: 4C (ssRNA)
RNA: CUGCUGCCCC
binding result (hLa): no binding

B5: C10 (ssRNA)
RNA: CCCCCCCCCC
binding result (Mlp1 [3]; label: 32P): no binding

B6: pre-tRNA LeuAAG 5'-leader only (+5'PPP) (structured_RNA)
RNA: GAGCGAAGAUGAAGUGGCCGAGCGGUCUAAGGCGGUAGAUUAAGGCUCUAUUCCGAAAGGGCGCGAGUUCGAAUCUCGCCUUCAUCA
Kd (Mlp1 [1]; tRNA fold): 714 ± 21 nM

B7: U-2C (ssRNA)
RNA: CUGCUGUUCU
binding result (Mlp1 [2]): binds

B8: mature tRNA GlnUUA (structured_RNA)
RNA: GGUUCCAUAGUAUAGUGGUUAGUACUGGGGACUUUAAAUCCCUUGACCUGGGUUCGAAUCCCAGUGGGACCU
Kd (Mlp1 [1]; [4]): 801 ± 62 nM

B9: U-3C (ssRNA)
RNA: CUGCUGUCUU
binding result (Mlp1 [2]): binds

B10: 4U (CUGCUGUUUU-3'OH) (ssRNA)
RNA: CUGCUGUUUU
binding result (Mlp1 [3]): binds | binding result (Mlp1 Q11A/Y14A): no binding | binding result (Mlp1 1-250): binds

B11: pre-tRNA LeuAAG 5' 3' (structured_RNA)
RNA: GAGCGAAGAUGAAGUGGCCGAGCGGUCUAAGGCGGUAGAUUAAGGCUCUAUUCCGAAAGGGCGCGAGUUCGAAUCUCGCCUUCAUCAGAUUUUU
Kd (Mlp1 [1]; tRNA fold): 586 ± 15 nM

B12: pre-tRNA LeuAAG 3'-trailer only (structured_RNA)
RNA: GAUGAAGUGGCCGAGCGGUCUAAGGCGGUAGAUUAAGGCUCUAUUCCGAAAGGGCGCGAGUUCGAAUCUCGCCUUCAUCAGAUUUUU
Kd (Mlp1 [1]; label: 32P-UTP body label): 658 ± 36 nM

B13: pre-tRNA GlnUUA 5' 3' (structured_RNA)
RNA: GCAUGUCCGGUUCCAUAGUAUAGUGGUUAGUACUGGGGACUUUAAAUCCCUUGACCUGGGUUCGAAUCCCAGUGGGACCUGCUUUUU
Kd (Mlp1 [1]; [4]): 687 ± 44 nM

B14: mature tRNA LeuAAG (structured_RNA)
RNA: GAUGAAGUGGCCGAGCGGUCUAAGGCGGUAGAUUAAGGCUCUAUUCCGAAAGGGCGCGAGUUCGAAUCUCGCCUUCAUCA
Kd (Mlp1 [1]; tRNA fold): 831 ± 33 nM

B15: pre-tRNA GlnUUA 5'-leader only (structured_RNA)
RNA: GCAUGUCCGGUUCCAUAGUAUAGUGGUUAGUACUGGGGACUUUAAAUCCCUUGACCUGGGUUCGAAUCCCAGUGGGACCU
Kd (Mlp1 [1]; label: 32P-UTP body label): 804 ± 16 nM
